In the supplement of paper PMC10567573:

B1: IFRG15 (parent)
chain: INRADYCPECYPDNPANRSLVLPW

Variants of: B1
Assay: protein stability index of a GFP-peptide fusion (GPS, HEK-293T) (PSI 1-6); higher = more stable
Conditions: c terminus: a fixed tail appended
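Also: lentivirally expressed fusions sorted by FACS into six bins by GFP to DsRed ratio, PSI derived from sequencing read proportions per bin multiplied by bin number.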

Variant	protein stability index
INRADYFPECYPDNPANRSLVLPW [C7F]	2.28
INRADYRPECYPDNPANRSLVLPW [C7R]	2.73
INRADYNPECYPDNPANRSLVLPW [C7N]	2.81
INRADYMPECYPDNPANRSLVLPW [C7M]	2.08
INRADYKPECYPDNPANRSLVLPW [C7K]	2.95
INRADYGPECYPDNPANRSLVLPW [C7G]	2.62
INRADYAPECYPDNPANRSLVLPW [C7A]	2.58
INRADYDPECYPDNPANRSLVLPW [C7D]	3.72
INRADYVPECYPDNPANRSLVLPW [C7V]	2.34
INRADYLPECYPDNPANRSLVLPW [C7L]	1.97
INRADYYPECYPDNPANRSLVLPW [C7Y]	2.41
INRADYTPECYPDNPANRSLVLPW [C7T]	2.68
INRADYWPECYPDNPANRSLVLPW [C7W]	1.43
INRADYIPECYPDNPANRSLVLPW [C7I]	2.27
INRADYPPECYPDNPANRSLVLPW [C7P]	2.42
INRADYQPECYPDNPANRSLVLPW [C7Q]	2.74
INRADYHPECYPDNPANRSLVLPW [C7H]	2.13
INRADYEPECYPDNPANRSLVLPW [C7E]	2.5
INRADYSPECYPDNPANRSLVLPW [C7S]	3.23
ILRADYCPECYPDNPANRSLVLPW [N2L]	1.79
IQRADYCPECYPDNPANRSLVLPW [N2Q]	2.03
IHRADYCPECYPDNPANRSLVLPW [N2H]	1.84
IRRADYCPECYPDNPANRSLVLPW [N2R]	1.26
IIRADYCPECYPDNPANRSLVLPW [N2I]	1.7

Variant	protein stability index
ITRADYCPECYPDNPANRSLVLPW [N2T]	1.78
IGRADYCPECYPDNPANRSLVLPW [N2G]	2.15
IYRADYCPECYPDNPANRSLVLPW [N2Y]	1.7
IWRADYCPECYPDNPANRSLVLPW [N2W]	1.61
IKRADYCPECYPDNPANRSLVLPW [N2K]	2.29
IPRADYCPECYPDNPANRSLVLPW [N2P]	2.92
IERADYCPECYPDNPANRSLVLPW [N2E]	2.11
ICRADYCPECYPDNPANRSLVLPW [N2C]	3.06
IARADYCPECYPDNPANRSLVLPW [N2A]	1.65
IMRADYCPECYPDNPANRSLVLPW [N2M]	1.88
IDRADYCPECYPDNPANRSLVLPW [N2D]	2.64
IFRADYCPECYPDNPANRSLVLPW [N2F]	1.55
IVRADYCPECYPDNPANRSLVLPW [N2V]	1.91
ISRADYCPECYPDNPANRSLVLPW [N2S]	1.82
INRAKYCPECYPDNPANRSLVLPW [D5K]	1.4
INRAEYCPECYPDNPANRSLVLPW [D5E]	1.96
INRAYYCPECYPDNPANRSLVLPW [D5Y]	1.15
INRAIYCPECYPDNPANRSLVLPW [D5I]	1.99
INRAVYCPECYPDNPANRSLVLPW [D5V]	2.21
INRAFYCPECYPDNPANRSLVLPW [D5F]	2.03
INRAQYCPECYPDNPANRSLVLPW [D5Q]	1.93
INRALYCPECYPDNPANRSLVLPW [D5L]	1.6
INRAWYCPECYPDNPANRSLVLPW [D5W]	1.91
INRANYCPECYPDNPANRSLVLPW [D5N]	1.88

Variant	protein stability index
INRARYCPECYPDNPANRSLVLPW [D5R]	2.39
INRAMYCPECYPDNPANRSLVLPW [D5M]	1.95
INRAHYCPECYPDNPANRSLVLPW [D5H]	2.09
INRASYCPECYPDNPANRSLVLPW [D5S]	2.07
INRACYCPECYPDNPANRSLVLPW [D5C]	1.92
INRAPYCPECYPDNPANRSLVLPW [D5P]	1.91
INRATYCPECYPDNPANRSLVLPW [D5T]	1.55
INRAAYCPECYPDNPANRSLVLPW [D5A]	1.78
INRAGYCPECYPDNPANRSLVLPW [D5G]	1.91
INRADYCPECAPDNPANRSLVLPW [Y11A]	1.96
INRADYCPECCPDNPANRSLVLPW [Y11C]	3.16
INQADYCPECYPDNPANRSLVLPW [R3Q]	2.32
INDADYCPECYPDNPANRSLVLPW [R3D]	2.59
INHADYCPECYPDNPANRSLVLPW [R3H]	2.39
INNADYCPECYPDNPANRSLVLPW [R3N]	2.36
INWADYCPECYPDNPANRSLVLPW [R3W]	1.35
INVADYCPECYPDNPANRSLVLPW [R3V]	1.74
INGADYCPECYPDNPANRSLVLPW [R3G]	2.65
INIADYCPECYPDNPANRSLVLPW [R3I]	1.54
INYADYCPECYPDNPANRSLVLPW [R3Y]	1.9
INEADYCPECYPDNPANRSLVLPW [R3E]	2.42
INTADYCPECYPDNPANRSLVLPW [R3T]	2.71
INAADYCPECYPDNPANRSLVLPW [R3A]	2.42
INMADYCPECYPDNPANRSLVLPW [R3M]	1.91

Variant	protein stability index
INLADYCPECYPDNPANRSLVLPW [R3L]	2.14
INKADYCPECYPDNPANRSLVLPW [R3K]	2.39
INPADYCPECYPDNPANRSLVLPW [R3P]	2.42
INFADYCPECYPDNPANRSLVLPW [R3F]	2.12
INCADYCPECYPDNPANRSLVLPW [R3C]	1.66
INSADYCPECYPDNPANRSLVLPW [R3S]	2.2
INRADYCNECYPDNPANRSLVLPW [P8N]	1.88
INRADYCIECYPDNPANRSLVLPW [P8I]	1.5
INRADYCHECYPDNPANRSLVLPW [P8H]	2.3
INRADYCTECYPDNPANRSLVLPW [P8T]	1.82
INRADYCVECYPDNPANRSLVLPW [P8V]	1.95
INRADYCGECYPDNPANRSLVLPW [P8G]	2.67
INRADYCEECYPDNPANRSLVLPW [P8E]	2.34
INRADYCDECYPDNPANRSLVLPW [P8D]	2.64
INRADYCFECYPDNPANRSLVLPW [P8F]	2.1
INRADYCQECYPDNPANRSLVLPW [P8Q]	2.48
INRADYCLECYPDNPANRSLVLPW [P8L]	1.85
INRADYCCECYPDNPANRSLVLPW [P8C]	2.07
INRADYCRECYPDNPANRSLVLPW [P8R]	1.99
INRADYCSECYPDNPANRSLVLPW [P8S]	2.46
INRADYCWECYPDNPANRSLVLPW [P8W]	2.02
INRADYCYECYPDNPANRSLVLPW [P8Y]	2.48
